Data reported in US20180187211A1.

Molecular target: PDL1 on the surface of TC-1 cells (mouse (TC-1 murine tumor cell line)) (UniProt Q9EP73)
Experiment: flow cytometry, staining of TC-1 tumor cells (background control)

Sequence of UniProt Q9EP73 (Q9EP73 19-290): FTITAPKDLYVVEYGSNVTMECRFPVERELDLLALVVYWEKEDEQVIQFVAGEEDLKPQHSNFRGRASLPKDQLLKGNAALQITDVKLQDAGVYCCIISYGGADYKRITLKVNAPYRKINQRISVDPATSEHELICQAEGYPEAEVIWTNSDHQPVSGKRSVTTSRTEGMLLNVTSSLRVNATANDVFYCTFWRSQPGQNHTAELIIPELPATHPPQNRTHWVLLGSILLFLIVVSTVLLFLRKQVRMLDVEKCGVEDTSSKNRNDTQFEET

- median fluorescent intensity (MFI): 184 MFI
Substance: PE-conjugated isotype control antibody
